Assay results: PMC2930068 (Journal of molecular biology, 2010)
Where “and” joins values, the source holds several entries; their conditions need not be identical. Equal entries are not always repeated.

T1: pSTAT1 (1-712) F77A / L78A (UniProt P42224-2 1-712, F77A | L78A, phosphotyrosine at 701)
T1 sequence (looked up): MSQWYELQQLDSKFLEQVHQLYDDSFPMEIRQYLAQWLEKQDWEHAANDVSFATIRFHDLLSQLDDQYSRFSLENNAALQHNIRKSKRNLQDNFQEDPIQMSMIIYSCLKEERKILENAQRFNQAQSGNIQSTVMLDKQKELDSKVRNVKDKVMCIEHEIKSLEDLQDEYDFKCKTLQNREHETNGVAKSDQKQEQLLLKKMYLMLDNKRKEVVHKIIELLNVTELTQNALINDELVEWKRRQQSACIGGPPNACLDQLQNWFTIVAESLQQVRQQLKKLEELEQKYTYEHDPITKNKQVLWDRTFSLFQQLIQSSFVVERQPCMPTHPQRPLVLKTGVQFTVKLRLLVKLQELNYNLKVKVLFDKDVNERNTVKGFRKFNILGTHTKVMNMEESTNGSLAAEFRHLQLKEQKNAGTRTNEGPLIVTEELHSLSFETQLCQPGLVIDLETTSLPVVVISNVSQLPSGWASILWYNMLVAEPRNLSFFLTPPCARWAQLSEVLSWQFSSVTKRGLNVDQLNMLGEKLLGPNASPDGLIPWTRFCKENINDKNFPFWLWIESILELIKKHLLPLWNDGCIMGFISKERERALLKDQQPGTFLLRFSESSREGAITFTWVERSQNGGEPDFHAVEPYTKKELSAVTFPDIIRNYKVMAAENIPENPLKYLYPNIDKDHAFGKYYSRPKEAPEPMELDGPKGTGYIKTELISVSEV

B1: phosphorylated-Tyr701 STAT1 (1-712), N-terminal 6-histidine tag (natural protein, UniProt P42224-2 1-712, looked up)
chain: MSQWYELQQLDSKFLEQVHQLYDDSFPMEIRQYLAQWLEKQDWEHAANDVSFATIRFHDLLSQLDDQYSRFSLENNFLLQHNIRKSKRNLQDNFQEDPIQMSMIIYSCLKEERKILENAQRFNQAQSGNIQSTVMLDKQKELDSKVRNVKDKVMCIEHEIKSLEDLQDEYDFKCKTLQNREHETNGVAKSDQKQEQLLLKKMYLMLDNKRKEVVHKIIELLNVTELTQNALINDELVEWKRRQQSACIGGPPNACLDQLQNWFTIVAESLQQVRQQLKKLEELEQKYTYEHDPITKNKQVLWDRTFSLFQQLIQSSFVVERQPCMPTHPQRPLVLKTGVQFTVKLRLLVKLQELNYNLKVKVLFDKDVNERNTVKGFRKFNILGTHTKVMNMEESTNGSLAAEFRHLQLKEQKNAGTRTNEGPLIVTEELHSLSFETQLCQPGLVIDLETTSLPVVVISNVSQLPSGWASILWYNMLVAEPRNLSFFLTPPCARWAQLSEVLSWQFSSVTKRGLNVDQLNMLGEKLLGPNASPDGLIPWTRFCKENINDKNFPFWLWIESILELIKKHLLPLWNDGCIMGFISKERERALLKDQQPGTFLLRFSESSREGAITFTWVERSQNGGEPDFHAVEPYTKKELSAVTFPDIIRNYKVMAAENIPENPLKYLYPNIDKDHAFGKYYSRPKEAPEPMELDGPKGTGYIKTELISVSEV
modifications: phosphotyrosine at 701; alkylated with N-ethyl-maleimide

Key:
[1] = biological target: B1; test: SPR
[2] = biological target: T1, pSTAT1 (1-712) F77A / L78A; test: SPR
[3] = biological target: the molecule itself; test: AUC

| Kd [1] [nM] | koff [1] [s⁻¹] | kon [1] [M⁻¹ s⁻¹] | Binder | stoichiometry N [3] | further results |
| --- | --- | --- | --- | --- | --- |
| 153 ± 16 | 0.0218 | 144000 | GST-ΔIBB-importin α5 (res. 79-538) (domain or fragment) not shown | – | – |
| 166 ± 17 | 0.0204 | 124000 | GST-importin α5 (res. 1-512) (domain or fragment) not shown | – | – |
| – | – | – | GST-importin α5 (res. 1-538) (natural protein) not shown | – | Kd [2]: 112 ± 22 nM; koff [2]: 0.0113 s⁻¹; kon [2]: 98100 M⁻¹ s⁻¹ |
| – | – | – | unphosphorylated STAT1 (1-712), N-terminal 6-histidine tag (natural protein, UniProt P42224-2 1-712, looked up) MSQWYELQQLDSKFLEQVHQLYDDSFPMEIRQYLAQWLEKQDWEHAANDVSFATIRFHDLLSQLDDQYSRFSLENNFLLQHNIRKSKRNLQDNFQEDPIQMSMIIYSCLKEERKILENAQRFNQAQSGNIQSTVMLDKQKELDSKVRNVKDKVMCIEHEIKSLEDLQDEYDFKCKTLQNREHETNGVAKSDQKQEQLLLKKMYLMLDNKRKEVVHKIIELLNVTELTQNALINDELVEWKRRQQSACIGGPPNACLDQLQNWFTIVAESLQQVRQQLKKLEELEQKYTYEHDPITKNKQVLWDRTFSLFQQLIQSSFVVERQPCMPTHPQRPLVLKTGVQFTVKLRLLVKLQELNYNLKVKVLFDKDVNERNTVKGFRKFNILGTHTKVMNMEESTNGSLAAEFRHLQLKEQKNAGTRTNEGPLIVTEELHSLSFETQLCQPGLVIDLETTSLPVVVISNVSQLPSGWASILWYNMLVAEPRNLSFFLTPPCARWAQLSEVLSWQFSSVTKRGLNVDQLNMLGEKLLGPNASPDGLIPWTRFCKENINDKNFPFWLWIESILELIKKHLLPLWNDGCIMGFISKERERALLKDQQPGTFLLRFSESSREGAITFTWVERSQNGGEPDFHAVEPYTKKELSAVTFPDIIRNYKVMAAENIPENPLKYLYPNIDKDHAFGKYYSRPKEAPEPMELDGPKGTGYIKTELISVSEV | 2 | – |
| – | – | – | B1 | 2 and ~4 | – |
| 247 ± 27 | 0.0243 | 98300 | GST-importin α5 (res. 1-504) (domain or fragment) not shown | – | – |
